According to publication PMC3520712, “Arabidopsis mutant sk156 reveals complex regulation of SPL15 in a miR156-controlled gene network”:

Target: T1, SPL15 SBP domain (His-tagged) (Arabidopsis thaliana, UniProt Q9M2Q6 50-139)
T1 sequence: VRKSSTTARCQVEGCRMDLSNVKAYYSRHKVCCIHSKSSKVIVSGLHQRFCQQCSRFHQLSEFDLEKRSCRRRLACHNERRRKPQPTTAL
Assay: EMSA; ~500 ng protein, ~20 fmol DNA; displaced by 100-fold unlabeled N1; 10 mM Tris pH 7.5, 50 mM KCl, 5 mM MgCl (so in the source), 5 mM DTT, 2.5% glycerol, 0.05% NP-40, 25 C 30 min; 7.5% gel in 0.5x TBE at 4 C
Details: protein: recombinant; tags: His tag (pET28a, BamHI/SalI; 16.3 kD fusion); label: digoxigenin (DIG Gel Shift kit); blunt

B1: miR156b promoter 46-mer (R156b-bx1) (dsDNA)
DNA 1: TAATTAGTGAAACTGTACAATGTACAATGTACCAATGCCATTAATG
DNA 2: CATTAATGGCATTGGTACATTGTACATTGTACAGTTTCACTAATTA
  binding result: binds
